The target in this experiment is Edc3 IDR. Put plainly: methyl TROSY NMR titration.

With “Edc3 YjeF_N domain (from UniProt O94752) V253I”, the other: chemical shift perturbation Δδ of the introduced methyl group (+ 4x Edc3 IDR) came to 0.391 ppm.
On to “Edc3 YjeF_N domain (from UniProt O94752) W393M”, for which the other: chemical shift perturbation Δδ of the introduced methyl group (+ 4x Edc3 IDR) is 0.104 ppm.
As for “Edc3 YjeF_N domain (from UniProt O94752) Q447I”, the other: chemical shift perturbation Δδ of the introduced methyl group (+ 6x Edc3 IDR) was determined as 0.078 ppm.
In the case of “Edc3 YjeF_N domain (from UniProt O94752) K392M”, the other: chemical shift perturbation Δδ of the introduced methyl group (+ 6x Edc3 IDR) is 0.087 ppm.

Values taken from article PMC6778109.
